According to patent US7910100B2, “Antibodies directed to the mammalian EAG1 ion channel protein” (Max-Planck-Gesellschaft zur Forderung der Wissen, priority 2004, dated 2011):

T1: Eag1 in rat brain sections (Rattus norvegicus, UniProt Q63472)
T1 construct: from tissue; host or cells: brain (cerebellum, hippocampus) of postnatal-day 21 Sprague Dawley rats
T1 sequence (Q63472 1-962): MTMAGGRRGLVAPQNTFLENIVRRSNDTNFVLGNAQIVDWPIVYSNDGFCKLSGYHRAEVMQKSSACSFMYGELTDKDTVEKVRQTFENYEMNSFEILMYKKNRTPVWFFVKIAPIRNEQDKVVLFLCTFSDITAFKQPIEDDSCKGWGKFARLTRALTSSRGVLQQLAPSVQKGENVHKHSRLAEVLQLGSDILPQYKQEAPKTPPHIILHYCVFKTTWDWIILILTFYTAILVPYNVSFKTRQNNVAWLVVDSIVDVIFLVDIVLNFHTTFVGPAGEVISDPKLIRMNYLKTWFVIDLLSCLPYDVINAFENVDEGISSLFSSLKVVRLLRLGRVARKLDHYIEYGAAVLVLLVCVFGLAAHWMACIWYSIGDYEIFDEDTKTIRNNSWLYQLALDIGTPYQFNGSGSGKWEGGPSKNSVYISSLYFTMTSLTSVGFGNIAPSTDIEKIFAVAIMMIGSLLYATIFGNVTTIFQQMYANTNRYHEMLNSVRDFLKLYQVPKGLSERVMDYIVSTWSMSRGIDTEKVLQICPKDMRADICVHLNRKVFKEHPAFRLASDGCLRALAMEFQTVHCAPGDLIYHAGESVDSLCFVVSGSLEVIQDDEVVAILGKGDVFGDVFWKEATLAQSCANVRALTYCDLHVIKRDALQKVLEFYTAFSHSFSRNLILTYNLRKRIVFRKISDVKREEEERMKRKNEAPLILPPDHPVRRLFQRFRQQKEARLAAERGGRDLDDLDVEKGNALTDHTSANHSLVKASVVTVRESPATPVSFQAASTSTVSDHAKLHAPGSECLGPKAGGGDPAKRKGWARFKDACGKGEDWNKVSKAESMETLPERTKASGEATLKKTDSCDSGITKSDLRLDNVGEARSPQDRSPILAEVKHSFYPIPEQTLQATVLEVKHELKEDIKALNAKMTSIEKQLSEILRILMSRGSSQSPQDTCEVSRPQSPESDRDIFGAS


Tests used:
[1] = target: T1, Eag1 in rat brain sections; experiment: Immunohistochemistry of rat brain sections (cerebellum, hippocampus); format: binding; details: ImAb1 4 μg/ml, ImAb4 2 μg/ml, overnight 4° C.
Description: Cross-reactivity of anti-Eag1 antibodies of the invention were further analysed by Immunohistochemistry studies of rat brain sections of the cerebellum and the hippocampus. For the IHC, two postnatal-day 21 Sprague Dawley rats were anesthetized with a mixture of ketamine HCl (Ketaset; 100 mg/ml; Fort Dodge Laboratories, Inc., U.S.A.) and xylazine (Rompun; 20 mg/ml; Mile, Inc., U.S.A.) at 0.1 ml/100 g body weight. The animals were transcardially perfused with a fixative consisting of 4% p-formaldehyde in 0.12 M phosphate buffer (pH 7.2). After perfusion, brains were removed, fixed for an additional hour at 4° C., rinsed three times with PBS and stored overnight at 4° C. Coronal and sagital sections (40-50 μm) were cut in cold PBS using a vibratome (Leica, Vienna, Austria). Slices were incubated for 1 h with 10% normal goat serum in PBS, then with anti-Eag1 antibodies ImAb1 (4 μg/ml) and ImAb4 (2 μg/ml) in PBS overnight at 4° C. and processed using the avidin/biotin-peroxidase system (Vectastain kit, Vector Laboratories, Burlingame, Calif.). Antibody binding was visualized using 3′-3-diaminobenzidine tetrahydrochloride (DAB; DAB substrate kit for peroxidase, Vector Laboratories). […] Sections were analysed with a Zeiss Axiophot microscope.

[2] = system: Eag1 peptides (pore domain / CAD domain of immunogen); experiment: Epitope mapping on SPOT cellulose membrane with 76 overlapping peptides; format: binding; details: 76 overlapping 13 mer peptides, shift 2 aa; antibody diluted 1:2000
[3] = system: Eag1 overexpressing CHO K1 cells; experiment: Internalization of Cy3-labelled antibodies, immunofluorescence on living cells; format: cell-based; details: Cy3-labelled antibody; for binding to Eag1 antigen on living cells: overnight; for internalization into cells: within 24 h
Description: In order to analyse the internalization properties of the anti-Eag1 antibodies of invention, CHO cells were grown on coverslips and incubated in normal medium (Ham's F12, 10% FCS) overnight (37 C, 5% CO2) with anti-Eag1 antibodies ImAb1 and ImAb4 directly labeled with Cy3 (100 μg). Cultures were thereafter incubated with app. 2 μg/ml Hoechst 33342 for 10 min.

Molecule	cross-reactivity with rat (IHC staining) [1]	peptide spots bound (epitope) [2]	binding to Eag1 antigen on living cells [3]	internalization into cells [3]
ImAb1: mouse monoclonal anti-Eag1 antibody; VL SEQ ID NO: 43, VH SEQ ID NO: 44; binds C-terminus of Eag1 (antibody, listed as Mus musculus) heavy: MNFGFSLIFLVLVLKGVQCEVKLVESGGGLVKPGGSLKLSCAASGFTFSNYAMSWVRQTPEKRLEWVASISSDGDTYFPDNVKGRFTISRENAGNILFLQMSSLRSEDTAMYYCARGFMITFWGQGTLVTVSAAKTTPPSVYPLAPGCGDTTGSSVTLGCLVKGYFPESVTVTWNSGSLSSSVHTFPALLQSGLYTMSSSVTVPSSTWPSQTVTCSVAHPASSTTVD light: MDMRAPAQFFGILLLWFPGIRCDIKMTQSPSSMYASLGERVTITCKASQDIKSYLSWYQQKPWKSPKILIYYATSLADGVPSRISGSGSGQDYSLTISSLESDDTATYYCLQHGESPYTFGGGTKLEIKRADAAPTVSIFPPSSEQLTSGGASVVCFLNNFYPKDINVKWKIDGSERQNGVLNSWTDQDSKDSTYSMSSTLTLTKDEYERHNSYTCEATHKTSTSPIVKSFNRNEC	cross-reacts with other mammalian species such as rat	bound weakly to peptides 21-24	bind to Eag1 antigen on living cells expressing the antigen	are internalized into the cells
ImAb4: mouse monoclonal anti-Eag1 antibody, IgG2b kappa; light chain SEQ ID NO: 2, heavy chain SEQ ID NO: 4 (antibody, listed as Mus musculus) heavy: MRVLILLWLFTAFPGILSDVQLQESGPGLVKPSQSLSLTCTVTGYSITSDYAWNWIRQFPGNKLEWMGYISYSGSTIYNPSLKSRISITRDTSKNQFFLQLNSVTTEDTATYYCARFGNYGNTLNYWGQGTSVTVSSAKTTPPSVYPLAPGCGDTTGSSVTLGCLVKGYFPESVTVTWNSGSLSSSVHTFPALLQSGLYTMSSSVTVPSSTWPSQTVTCSVAHPASSTTVDKKLEPSGPISTINPCPPCKECHKCPAPNLEGGPSVFIFPPNIKDVLMISLTPKVTCVVVDVSEDDPDVQISWFVNNVEVHTAQTQTHREDYNSTIRVVSTLPIQHQDWMSGKEFKCKVNNKDLPSPIERTISKIKGLVRAPQVYILPPPAEQLSRKDVSLTCLVVGFNPGDISVEWTSNGHTEENYKDTAPVLDSDGSYFIYSKLNMKTSKWEKTDSFSCNVRHEGLKNYYLKKTISRSPGK light: MKLPVRLLVLMFWIPASSSDVVMTQTPLSLPVSLGDQASISCRSSQSLVHSNGNTYLHWYLQKPGQSPKLLIYKVSNRFSGVPDRFSGSGSGTDFTLKISRVEAEDLGVYFCSQSTHVPPTFGGGTKLEIKRADAAPTVSIFPPSSEQLTSGGASVVCFLNNFYPKDINVKWKIDGSERQNGVLNSWTDQDSKDSTYSMSSTLTLTKDEYERHNSYTCEATHKTSTSPIVKSFNRNEC	cross-reacts with other mammalian species such as rat	bound at spots 3-8	bind to Eag1 antigen on living cells expressing the antigen	are internalized into the cells
